According to patent EP2112164A1 (Institut Pasteur Of Shanghai, dated 2009):

Columns and labels:
[1] = target: HIV-1 envelope pDOL (subtype B) (HIV-1 (subtype B)); experiment: cell-based or functional assay
[2] = target: HIV-1 envelope Q168 (subtype A) (HIV-1 (subtype A)); experiment: cell-based or functional assay

B1: scFv/hinge/his-tag/DAF (anti-HIV-1 gp41 scFv derived from human monoclonal antibody TG15, human IgG3 hinge region, 6 x his tag, GPI anchor replacement signal … (scFv)
scFv: QVQLQQWGAGLLKPSETLSLTCAVYGDSFGGHHWSWIRQPPGKGLEWIGEINFLGNTNYNPSLKSRVAISKDTSKNQFSLTLNSATAADTAVYFCARRETMETASRKRAFDIWGQGTMETVTVSAGGGGSGGGGSGGGGSAELMETTQSPPTLSASVGDRVTITCRASQSLSGWVAWYQQKPGKAPKLLIYKASTLESGVPSRFSGSGSGTVFALTISSLQPDDSATYYCQQHSAFSSTFGQGTKLEIKRTPLGDTTHTSGHHHHHHGSGTTSGTTRLLSGHTCFTLTGLLGTLVTMETGLLT
- relative luciferase activity (RLA) in a single-cycle pseudotype infectivity assay, CEMss-GPI-scFv compared to CEMss-eGFP [1]: 8 fold reduction
- relative luciferase activity (RLA) in a single-cycle pseudotype infectivity assay, CEMss-GPI-scFv compared to CEMss-eGFP [2]: 180 fold reduction
